Biological target: the molecule itself
Assay: SDS-PAGE and immunoblot of dimer bands in subcellular fractions

B1: metabotropic glutamate receptor 1 splice variant mGluR1b (endogenous, rat brain) (receptor, rat (endogenous in rat brain), UniProt P23385-2 19-906, looked up)
chain: LPRMPDRKVLLAGASSQRSVARMDGDVIIGALFSVHHQPPAEKVPERKCGEIREQYGIQRVEAMFHTLDKINADPVLLPNITLGSEIRDSCWHSSVALEQSIEFIRDSLISIRDEKDGLNRCLPDGQTLPPGRTKKPIAGVIGPGSSSVAIQVQNLLQLFDIPQIAYSATSIDLSDKTLYKYFLRVVPSDTLQARAMLDIVKRYNWTYVSAVHTEGNYGESGMDAFKELAAQEGLCIAHSDKIYSNAGEKSFDRLLRKLRERLPKARVVVCFCEGMTVRGLLSAMRRLGVVGEFSLIGSDGWADRDEVIEGYEVEANGGITIKLQSPEVRSFDDYFLKLRLDTNTRNPWFPEFWQHRFQCRLPGHLLENPNFKKVCTGNESLEENYVQDSKMGFVINAIYAMAHGLQNMHHALCPGHVGLCDAMKPIDGRKLLDFLIKSSFVGVSGEEVWFDEKGDAPGRYDIMNLQYTEANRYDYVHVGTWHEGVLNIDDYKIQMNKSGMVRSVCSEPCLKGQIKVIRKGEVSCCWICTACKENEFVQDEFTCRACDLGWWPNAELTGCEPIPVRYLEWSDIESIIAIAFSCLGILVTLFVTLIFVLYRDTPVVKSSSRELCYIILAGIFLGYVCPFTLIAKPTTTSCYLQRLLVGLSSAMCYSALVTKTNRIARILAGSKKKICTRKPRFMSAWAQVIIASILISVQLTLVVTLIIMEPPMPILSYPSIKEVYLICNTSNLGVVAPVGYNGLLIMSCTYYAFKTRNVPANFNEAKYIAFTMYTTCIIWLAFVPIYFGSNYKIITTCFAVSLSVTVALGCMFTPKMYIIIAKPERNVRSAFTTSDVVRMHVGDGKLPCRSNTFLNIFRRKKPGAGNAKKRQPEFSPSSQCPSAHAQL
stoichiometry N: 2
